What all share (conditions): EMSA per cited procedure (ref 27); buffer, salt, pH and temperature not given in the material
Background: In EMSA bound probe runs differently from free probe, usually more slowly.

Series [1] concerns T1, TarR (Bacillus velezensis FZB42), ORF:a9b72c09.
T1 sequence: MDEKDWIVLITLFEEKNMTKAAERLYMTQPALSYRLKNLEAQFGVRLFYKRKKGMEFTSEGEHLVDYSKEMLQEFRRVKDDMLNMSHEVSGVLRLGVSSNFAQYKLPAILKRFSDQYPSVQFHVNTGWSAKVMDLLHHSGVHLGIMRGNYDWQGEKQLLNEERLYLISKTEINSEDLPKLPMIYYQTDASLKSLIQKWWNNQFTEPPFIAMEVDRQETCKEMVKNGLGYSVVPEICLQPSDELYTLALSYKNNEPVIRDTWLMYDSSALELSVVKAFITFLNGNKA
The series can be described thus: EMSA.

Series [2] shares this test system. The series can be described thus: DNase I footprinting.
The subject of series [3] is T2, TarRN1-91 (Bacillus velezensis FZB42), ORF:46dabd2b.
T2 sequence: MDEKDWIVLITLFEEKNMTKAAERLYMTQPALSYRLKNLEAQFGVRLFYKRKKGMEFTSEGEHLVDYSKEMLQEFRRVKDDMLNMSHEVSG
The series can be described thus: EMSA?

This passage reports binding results from article PMC11495376.

“GCTGTCTCATCCTTACATCATTTTGTGTGGATAAAAAGGTACCGGTCCCTTTGGAAAATATCGTATGATAAATAAGGATTATAAGTAAAACATATAATTTTTATAAAGTTGAATAAAAAAAATTTATAATAAGAGAAAATTTTATAGCAGAAAAATATTTTGGGGGATTTCAT (double strand) [Ptar]”: the binding entry in series [1], in series [2] and in series [3] was “binds” in each case.
“AGCGAAAATATTTTTTAAAAAAGTATTGACCTAGCAAACTGAAAATGTTATGATTAAGAGGTCGCTTCGAGAGAAGCAACAAAGTTCTTTGAAAACTAAACAAGACAAAACGTACCTGTTAATTCAAAGTTTTAAATAAATCGCACAGCGATGTGCGTAGTCAGTCAAACTAC (double strand) [P16S]”: the binding entry in series [1] is recorded as “no binding”.
